Results published in US20070286861A1, “Immunoglobulins” (published 2007).
Where two headings read alike, the source gives them in different places.

T1: glycosylated human OSM produced in CHO cells (human, glycosylated (CHO cell glycosylated))
T1 chain: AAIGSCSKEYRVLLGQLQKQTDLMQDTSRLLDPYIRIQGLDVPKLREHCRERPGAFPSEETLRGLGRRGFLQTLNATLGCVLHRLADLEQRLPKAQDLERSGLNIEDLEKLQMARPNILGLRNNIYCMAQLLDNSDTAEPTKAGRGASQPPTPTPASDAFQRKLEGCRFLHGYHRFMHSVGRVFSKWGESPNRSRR

T2: glycosylated human OSM produced in CHO cells (human)
T2 sequence (chain, glycosylated (CHO cell glycosylated)): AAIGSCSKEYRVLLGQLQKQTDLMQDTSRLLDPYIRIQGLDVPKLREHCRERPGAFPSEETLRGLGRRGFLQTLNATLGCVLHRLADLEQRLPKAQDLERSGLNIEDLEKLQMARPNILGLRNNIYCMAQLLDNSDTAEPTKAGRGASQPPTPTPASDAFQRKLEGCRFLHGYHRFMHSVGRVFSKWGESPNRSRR

T3: human Oncostatin M (hOSM) (human)
T3 chain: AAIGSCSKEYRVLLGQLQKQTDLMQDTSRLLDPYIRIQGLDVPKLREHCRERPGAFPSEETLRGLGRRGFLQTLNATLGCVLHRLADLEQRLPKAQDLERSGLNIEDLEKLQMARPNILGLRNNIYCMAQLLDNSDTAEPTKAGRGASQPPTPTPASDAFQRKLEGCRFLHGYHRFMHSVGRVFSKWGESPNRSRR

T4: cynomolgus monkey OSM (cOSM) (cynomolgus monkey)
T4 chain: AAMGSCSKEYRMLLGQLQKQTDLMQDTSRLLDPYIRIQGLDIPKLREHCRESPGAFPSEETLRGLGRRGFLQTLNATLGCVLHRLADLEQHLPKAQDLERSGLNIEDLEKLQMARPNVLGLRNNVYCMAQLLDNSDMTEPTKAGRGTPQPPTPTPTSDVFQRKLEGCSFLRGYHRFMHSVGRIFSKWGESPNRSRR


Tests used:
[1] = biological target: T1, glycosylated human OSM produced in CHO …; test: gp130 inhibition ELISA (Table 4; OSM taken as CHO produced hOSM of FIG. 17)
[2] = biological target: T2, glycosylated human OSM produced in CHO cells (human)
[3] = biological target: T3, human Oncostatin M (hOSM); test: gp130 inhibition ELISA, CHO supernatant; legend: NA: inhibition is less than 50%
[4] = biological target: T4, cynomolgus monkey OSM (cOSM); test: gp130 inhibition ELISA, CHO supernatant
[5] = biological target: T3, human Oncostatin M (hOSM); test: gp130 inhibition ELISA, CHO supernatant
[6] = biological target: T3, human Oncostatin M (hOSM)
[7] = biological target: T3, human Oncostatin M (hOSM); test: gp130 inhibition ELISA (antibody pre-incubated with OSM; OSM bound to plate-coated gp130-Fc detected)
[8] = biological target: T3, human Oncostatin M (hOSM); test: gp130 inhibition ELISA
[9] = biological target: T4, cynomolgus monkey OSM (cOSM); test: gp130 inhibition ELISA
[10] = biological target: T3, human Oncostatin M (hOSM); test: gp130 ELISA
[11] = biological target: T4, cynomolgus monkey OSM (cOSM); test: gp130 ELISA
[12] = biological target: T3, human Oncostatin M (hOSM)
[13] = biological target: T4, cynomolgus monkey OSM (cOSM)
[14] = biological target: T4, cynomolgus monkey OSM (cOSM); test: gp130 inhibition ELISA, CHO supernatant; legend: NA: inhibition is less than 50%

Binder	IC50 [1] [µg/mL]	IL-6 release from KB cells (KB cell assay), IC50 [2] [µg/mL]	IC50 [4] [µg/mL]	IL-6 release from KB cells (KB cell assay), IC50 [6] [µg/mL]	IC50 [7] [µg/mL]	other results
15E10 murine antibody (antibody, V domains shown) VH: QVQLKQSGPGLVQPSQSLSITCTVSGFSLTNYGVHWVRQSPGKGLEWLGVIWRGGSTDYNAAFMSRLSITKDNSRSQVFFKMNSLQADDTAIYYCAKSPNSNFYWYFDVWGTGTTVTVSS VL: QIVLTQSPTIMSASPGEKVTMTCSGSSSVSYMYWYQEKPGSSPRLLIEDTSNLASGVPARFSGSGSGTSYSLTISRMEAEDAATYYCQQWSSYPPTFGSGTKLEIK	0.009	0.053		0.195	0.059	
15E10 chimaeric antibody (antibody, V domains shown) VH: QVQLKQSGPGLVQPSQSLSITCTVSGFSLTNYGVHWVRQSPGKGLEWLGVIWRGGSTDYNAAFMSRLSITKDNSRSQVFFKMNSLQADDTAIYYCAKSPNSNFYWYFDVWGTGTTVTVSS VL: QIVLTQSPTIMSASPGEKVTMTCSGSSSVSYMYWYQEKPGSSPRLLIEDTSNLASGVPARFSGSGSGTSYSLTISRMEAEDAATYYCQQWSSYPPTFGSGTKLEIK	0.019	0.079		0.11	0.036	IC50 [8]: 0.07 µg/mL; IC50 [9]: 0.06 µg/mL
Humanised antibody 10D3 DLE (antibody, V domains shown) VH: EVQLVQSGAEVKKPGASVKVSCKASGYIFTDYNMDWVRQAPGQKLEWIGDINPNNGGTIDNQKFKDRATLTVDKSTSTVYMELSSLRSEDTAVYYCARGIYYYGSHYFDYWGQGTLVTVSS VL: EIVLTQSPSSLSASVGDRVTITCSATSSVSVMHWFQKKPGKAPKRWIYDTSKLASGVPSRFSGSGSGTDYTLTISSLQPEDFATYYCQQWSSNPLTFGGGTKVDIKR						IC50 [10]: 0.021 µg/mL; IC50 [11]: 0.059 µg/mL; IL-6 release from KB cells (KB cell assay), IC50 [12]: 0.205 µg/mL; IL-6 release from KB cells (KB cell assay), IC50 [13]: 0.07 µg/mL
humanised 15E10 antibody B1L1 (antibody, V domains shown) VH: QVQLVESGGGVVQPGRSLRLSCAASGFSLTNYGVHWVRQAPGKGLEWVAVIWRGGSTDYNAAFMSRFTISRDNSKNTLYLQMNSLRAEDTAVYYCARSPNSNFYWYFDVWGRGTLV VL: EIVLTQSPATLSLSPGERATLSCSGSSSVSYMYWYQQKPGQAPRLLIYDTSNLASGIPARFSGSGSGTDFTLTISNLEPEDFAVYYCQQWSSYPPTFGQGTKLEIK						% inhibition [3]: < 50%; % inhibition [14]: < 50%
10D3 murine antibody (antibody, V domains shown) VH: EVQLQQSGPELVKPGASVKISCKASGYIFTDYNMDWVKQSHGKKLEWIGDINPNNGGTIDNQKFKDKATLTVDKSSSTAYMELRSLTSEDTAVYYCARGIYYYGSHYFDYWGQGTTLTVSS VL: QIVLTQSPAIMSASPGEKVTMTCSATSSVSVMHWFQKKSGTSPKRWIYDTSKLASGVPTRFSGSGSGTSYSLTISSMEAEDTATYYCQQWSSNPLTFGSGTKLELK				0.114	0.107	
10D3 chimaeric antibody (antibody, V domains shown) VH: EVQLQQSGPELVKPGASVKISCKASGYIFTDYNMDWVKQSHGKKLEWIGDINPNNGGTIDNQKFKDKATLTVDKSSSTAYMELRSLTSEDTAVYYCARGIYYYGSHYFDYWGQGTTLTVSS VL: QIVLTQSPAIMSASPGEKVTMTCSATSSVSVMHWFQKKSGTSPKRWIYDTSKLASGVPTRFSGSGSGTSYSLTISSMEAEDTATYYCQQWSSNPLTFGSGTKLELK				0.107	0.057	IC50 [10]: 0.032 µg/mL; IC50 [11]: 0.246 µg/mL

Further lines, with some results ahead:

IC50 [1] [µg/mL]	IL-6 release from KB cells (KB cell assay), IC50 [2] [µg/mL]	IC50 [4] [µg/mL]	IL-6 release from KB cells (KB cell assay), IC50 [6] [µg/mL]	IC50 [7] [µg/mL]	Binder	other results
0.035	0.123				humanised 15E10 antibody B3L2 (wild type Fc) (antibody, V domains shown) VH: QVQLVESGGGVVQPGRSLRLSCAASGFSLTNYGVHWVRQAPGKGLEWVAVIWRGGSTDYNAAFMSRFTISKDNSKNTLYLQMNSLRAEDTAVYYCAKSPNSNFYWYFDVWGRGTLVTVSS VL: EIVLTQSPATLSLSPGERATLSCSGSSSVSYMYWYQQKPGQAPRLLIEDTSNLASGIPARFSGSGSGTDYTLTISNLEPEDFAVYYCQQWSSYPPTFGQGTKLEIKR	
		0.167			humanised 15E10 antibody B4L1 (antibody, V domains shown) VH: QVQLVESGGGVVQPGRSLRLSCAASGFSLTNYGVHWVRQAPGKGLEWVAVIWRGGSTDYNAAFMSRLTISKDNSKNTLYLQMNSLRAEDTAVYYCAKSPNSNFYWYFDVWGRGTLVTVSS VL: EIVLTQSPATLSLSPGERATLSCSGSSSVSYMYWYQQKPGQAPRLLIYDTSNLASGIPARFSGSGSGTDFTLTISNLEPEDFAVYYCQQWSSYPPTFGQGTKLEIK	% inhibition [3]: < 50%
		0.04			humanised 15E10 antibody B4L2 (antibody, V domains shown) VH: QVQLVESGGGVVQPGRSLRLSCAASGFSLTNYGVHWVRQAPGKGLEWVAVIWRGGSTDYNAAFMSRLTISKDNSKNTLYLQMNSLRAEDTAVYYCAKSPNSNFYWYFDVWGRGTLVTVSS VL: EIVLTQSPATLSLSPGERATLSCSGSSSVSYMYWYQQKPGQAPRLLIEDTSNLASGIPARFSGSGSGTDYTLTISNLEPEDFAVYYCQQWSSYPPTFGQGTKLEIKR	IC50 [5]: 0.048 µg/mL
		0.11			humanised 15E10 antibody B1L2 (antibody, V domains shown) VH: QVQLVESGGGVVQPGRSLRLSCAASGFSLTNYGVHWVRQAPGKGLEWVAVIWRGGSTDYNAAFMSRFTISRDNSKNTLYLQMNSLRAEDTAVYYCARSPNSNFYWYFDVWGRGTLVTVSS VL: EIVLTQSPATLSLSPGERATLSCSGSSSVSYMYWYQQKPGQAPRLLIEDTSNLASGIPARFSGSGSGTDYTLTISNLEPEDFAVYYCQQWSSYPPTFGQGTKLEIK	IC50 [5]: 0.334 µg/mL
